The labels stand for the following.
B1: Antibody-drug conjugate 1: 900698 antibody cysteine-conjugated to SN-38 via Mc-VC-PAB-DMEDA-PEG linker, DAR about 7.8 (conjugate)
VH: QVQLVESGGGLVKPGGSLRLSCAASGFTFSKYAMSWIRQAPGKGLEWVAEISSGGGYINYADSVKGRFTISRDNAKNSLYLQMNSLRAEDTAVYYCARAIYYYGSSYNYYAMDYWGQGTTVTVSS
VL: DIQMTQSPSSLSASVGDRVTITCRASQDVGTAEAWYQQKPGKAPKLLIYWASTRHTGVPSRFSGSGSGTDFTLTISSLQPEDFATYYCQQYSSYPLTFGQGTKLEIK
B2: Antibody-drug conjugate 2: 900698 antibody cysteine-conjugated to SN-38 via MP2-VC-PAB-DMEDA-PEG linker, DAR about 7.8 (conjugate)
VH: B1 VH
VL: B1 VL
B3: 900698: anti-CD73 antibody, VH SEQ ID NO: 35, VL SEQ ID NO: 34 (antibody, V domains shown)
VH: B1 VH
VL: B1 VL
modifications: 900696, 900698 (VH); 900695, 900698 (VL)

One assay concerns the target T1, Human CD73 (Homo sapiens, UniProt P21589).
T1 sequence (P21589 27-547 limits assumed): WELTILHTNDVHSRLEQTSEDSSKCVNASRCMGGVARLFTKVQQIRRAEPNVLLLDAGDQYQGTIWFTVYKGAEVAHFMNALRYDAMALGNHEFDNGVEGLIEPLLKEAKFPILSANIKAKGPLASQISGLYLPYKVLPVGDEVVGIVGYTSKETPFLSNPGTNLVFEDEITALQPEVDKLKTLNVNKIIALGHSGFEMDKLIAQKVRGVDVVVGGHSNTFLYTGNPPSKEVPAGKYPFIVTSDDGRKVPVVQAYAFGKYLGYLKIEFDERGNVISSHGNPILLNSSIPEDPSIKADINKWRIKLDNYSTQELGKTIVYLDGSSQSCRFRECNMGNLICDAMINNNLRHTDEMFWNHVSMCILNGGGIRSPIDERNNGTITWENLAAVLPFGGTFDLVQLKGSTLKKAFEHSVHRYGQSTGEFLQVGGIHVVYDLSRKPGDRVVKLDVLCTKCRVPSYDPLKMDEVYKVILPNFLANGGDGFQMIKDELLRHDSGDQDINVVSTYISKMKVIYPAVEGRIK
The assay can be described thus: Inhibition of enzymatic activity of soluble recombinant CD73 protein (AMP/ATP, CellTiter-Glo). The assay is classed as biochemical. Also noted: purchased ACRO CD3-H52H7-100 μg. As to conditions: FIG. 3; the three samples compared with each other. The protocol:
The inhibitory effects of the antibody-drug conjugate 1 and the antibody-drug conjugate 2 prepared in Example 1 and the 900698 naked antibody on the enzymatic activity of a recombinant CD73 protein (ACRO, #CD3-H52H7-100 μg) were assayed. The specific procedures were as follows: The series of CD73 antigen-binding proteins were diluted to 120 μg/mL with TM Buffer (ROCKLAND, #MB-059), followed by a 3-fold dilution across 10 gradients. The diluted proteins were each added at 25 µL/well to a 96-well plate. The recombinant CD73 protein was then diluted to 0.3 μg/mL with TM Buffer (ROCKLAND, #MB-059) and added at 25 μL/well to the 96-well plate. The mixture was mixed uniformly. Then, diluted AMP and ATP were mixed at a ratio of 1:1, and the mixture was added at 50 μL/well to the above 96-well plate. The resulting mixture was allowed to react for 15 min. Finally, a CellTiter-Glo® substrate was added to a CellTiter-Glo® buffer. The mixture was mixed uniformly and equilibrated to room temperature, and then added at 100 μL/well to the wells to be tested. The resulting mixture was allowed to react at room temperature for 10 min and then subjected to full-wavelength detection.
The results for the inhibition of the enzymatic activity of the soluble recombinant CD73 antigen protein (ACRO, #CD3-H52H7-100 μg) by the antibody-drug conjugate 1, the antibody-drug conjugate 2, and the 900698 naked antibody are shown in FIG. 3 (represented as 1-3 in FIG. 3, respectively).
Consider B1, for which the “inhibitory effect on the enzymatic activity of the soluble recombinant CD73 protein” value is reported as “comparable inhibitory effects”.
On the same count and under the same terms, the value for B2 was “comparable inhibitory effects”; that for B3 was “comparable inhibitory effects”.

The target in another assay is T1, Human CD73. The assay can be described thus: Biacore binding kinetics with human CD73 protein. More on the design: purchased ACRO Biosystems CD3-H52H7. As to conditions: Human CD73, Biacore T200, protein A chip, 25° C., 1:1 binding model. On the procedure:
The binding kinetics of the antibody-drug conjugate 1 and the antibody-drug conjugate 2 prepared in Example 1 and the 900698 naked antibody with a human CD73 protein (manufacturer: ACRO Biosystems, Cat. No. CD3-H52H7) and a monkey CD73 protein (manufacturer: Novoprotein, Cat. No. CI21) were assayed using Biacore (GE, model: T200), with an assay buffer of HBS-EP+ (pH 7.4) and a protein A chip (manufacturer: GE, Cat. No. 29-1275-56).
The temperature for the sample compartment and the flow path was set to 25° C. The protein A chip captured each antigen-binding protein as a ligand, fixing about 100 RU. The human CD73 protein was diluted with the assay buffer to a series of concentrations of 50 nM, 25 nM, 12.5 nM, 6.25 nM, 3.12 nM, and 1.57 nM, serving as analytes, and the assay buffer was used as a 0 concentration control. At a flow rate of 30 μL/min, association was conducted for 120 s, and dissociation was conducted for 600 s. Glycine (10 mM, pH 1.5) was used for regeneration at a flow rate of 50 μL/min for 60 s in a multi-cycle kinetic assay. A 1:1 binding model was used, and the Fit Local mode was selected to determine the association rate constant (ka), dissociation rate constant (kd), and equilibrium dissociation constant (KD).
For orientation: Surface plasmon resonance follows binding to a sensor surface in real time, without labels.
Regarding B1, the “ka” value is 381000 M⁻¹ s⁻¹ and the “kd” value turned out to be 0.000129 s⁻¹.
Take B2: the “ka” value worked out at 643000 M⁻¹ s⁻¹ and the “kd” value came out at 0.000228 s⁻¹.
Consider B3, for which the “ka” value came out at 147000 M⁻¹ s⁻¹ and the “kd” value came to 0.000104 s⁻¹.

These data come from patent US20250195679A1, “ANTIBODY-DRUG CONJUGATE AND USE THEREOF” (SHANGHAI HUAOTA BIOPHARMACEUTICAL CO., LTD., priority 2022, published 2025).
